Reference: patent US20130011909A1, “METHODS AND COMPOSITION TO ENHANCE PRODUCTION OF FULLY FUNCTIONAL P-GLYCOPROTEIN IN PICHIA PASTORIS” (TEXAS TECH UNIVERSITY SYSTEM, priority 2011, published 2013)

Assays:
Opti-Pgp = molecular target: T1, Opti-Pgp (Mus musculus, UniProt P21447, N83Q/N87Q/N90Q); test: ATPase assay of purified, lipid-activated Pgp (coupled ATP-regenerating assay); format: biochemical
T1 construct: made in house; host or cells: Pichia pastoris KM71H
Protocol: (§1) Purified Pgp in 0.1% DDM was mixed with 10 mM DTT on ice for 5 min, then activated with 1% E. coli polar lipids for 15 minutes at room temperature followed by 30 s bath sonication as described. ATPase activity was measured at 37° C. in a coupled assay utilizing an ATP-regenerating system. For each well of a 96-well plate, 10 μl (5 μg) of activated wild type (WT) Pgp or Opti-Pgp was added to 200 μl of assay medium containing 10 mM ATP, 12 mM MgSO4, 3 mM phosphoenolpyruvate, 0.3 mM NADH, 0.5 mg/ml of lactate dehydrogenase, 0.5 mg/ml of pyruvate kinase, 0.1 mM EGTA and 40 mM Tris-HCl, pH 7.4. Verapamil was added from stock solution in water; cyclosporine A was added from concentrated stock in DMSO such that the final DMSO concentration was 2%; control samples contained 2% DMSO. […] ATPase activity was calculated as described previously and plotted with SigmaPlot 10 (Systat Software, Inc.).

[1] = Differential scanning calorimetry, thermal unfolding; format: physicochemical
Protocol: Calorimetry was routinely carried out in 20 mM HEPES, pH 7.6, 50 mM NaCl, 10% glycerol, 0.1% DDM and 5.5 mM DTT in 0.13 mL cells at a heating rate of 2 K/minutes with the VP-Capillary DSC System (MicroCal Inc., GE Healthcare). An external pressure of 2.0 atm was maintained to prevent possible degassing of the solutions on heating. Thermal unfolding was irreversible, as determined by sample cooling and reheating. Heat capacity curves were corrected for instrumental baseline obtained by buffer scans. Separated DSC scans were conducted for buffer containing 1% lipids and no transition was detected in the temperature range of thermal unfolding for the proteins in presence of lipids. DSC data were analyzed with the MicroCal Origin software to obtain the unfolding temperature (Tm) and the total unfolding enthalpy (ΔHcal).

[2] = tested on: S. cerevisiae strain JPY201; test: Drug-resistant growth of Pgp transformants (FK506, valinomycin, doxorubicin); format: cell-based
Protocol: (§2) FK506 resistance and mating assays were as previously described with the following modifications. To measure FK506-resistant growth, overnight cultures were grown in uracil-deficient medium, diluted to an (OD600 of 0.05, seeded into sterile 96 well plates in triplicate and grown in YPD medium at 30° C. in the absence or presence of FK506, valinomycin [12, 33], or doxorubicin. OD600 was measured at 2 hour intervals for 30 hours in a microplate reader (Benchmark Plus, BioRad) after vigorous mixing. Drugs were dissolved in dimethylsulfoxide and diluted into the plate medium such that the final concentration of solvent was ≦1%. For mating assays, mass populations were diluted to OD600 of 0.6, and 0.75 ml were spotted with 0.25 ml of α-type tester strain DC17 (OD600 of 1.2) onto a 22 mm 0.45 μm HA filter (Millipore, cat no SAIJ791H5), placed on a YPD plate and incubated for 4 hours, then plated in duplicate on minimal and uracil-deficient medium as described. Mating frequency was calculated as the ratio of transformed cells forming diploid colonies on selective medium to the total number of cells introduced in the assay. Statistical analysis of the functional assays was done with the SigmaPlot 11 software using One Way ANOV A with the pairwise multiple comparison Tukey test.

[3] = tested on: S. cerevisiae strain JPY201; test: Mating assay (a-factor export, diploid formation); format: cell-based; details: sterile ste6Δ strain JPY201, tester DC17
Protocol: as §2

WT-Pgp = molecular target: T2, WT-Pgp (Mus musculus, UniProt P21447, N83Q/N87Q/N90Q); test: ATPase assay of purified, lipid-activated Pgp (coupled ATP-regenerating assay); format: biochemical; details: 150 μM verapamil, 1% E. coli lipids, 37° C., n > 30
T2 construct: Arrows indicate the position of the full-length proteins (Pgp); made in house; host or cells: Pichia pastoris KM71H
T2 sequence (P21447 whole entry N83Q/N87Q/N90Q): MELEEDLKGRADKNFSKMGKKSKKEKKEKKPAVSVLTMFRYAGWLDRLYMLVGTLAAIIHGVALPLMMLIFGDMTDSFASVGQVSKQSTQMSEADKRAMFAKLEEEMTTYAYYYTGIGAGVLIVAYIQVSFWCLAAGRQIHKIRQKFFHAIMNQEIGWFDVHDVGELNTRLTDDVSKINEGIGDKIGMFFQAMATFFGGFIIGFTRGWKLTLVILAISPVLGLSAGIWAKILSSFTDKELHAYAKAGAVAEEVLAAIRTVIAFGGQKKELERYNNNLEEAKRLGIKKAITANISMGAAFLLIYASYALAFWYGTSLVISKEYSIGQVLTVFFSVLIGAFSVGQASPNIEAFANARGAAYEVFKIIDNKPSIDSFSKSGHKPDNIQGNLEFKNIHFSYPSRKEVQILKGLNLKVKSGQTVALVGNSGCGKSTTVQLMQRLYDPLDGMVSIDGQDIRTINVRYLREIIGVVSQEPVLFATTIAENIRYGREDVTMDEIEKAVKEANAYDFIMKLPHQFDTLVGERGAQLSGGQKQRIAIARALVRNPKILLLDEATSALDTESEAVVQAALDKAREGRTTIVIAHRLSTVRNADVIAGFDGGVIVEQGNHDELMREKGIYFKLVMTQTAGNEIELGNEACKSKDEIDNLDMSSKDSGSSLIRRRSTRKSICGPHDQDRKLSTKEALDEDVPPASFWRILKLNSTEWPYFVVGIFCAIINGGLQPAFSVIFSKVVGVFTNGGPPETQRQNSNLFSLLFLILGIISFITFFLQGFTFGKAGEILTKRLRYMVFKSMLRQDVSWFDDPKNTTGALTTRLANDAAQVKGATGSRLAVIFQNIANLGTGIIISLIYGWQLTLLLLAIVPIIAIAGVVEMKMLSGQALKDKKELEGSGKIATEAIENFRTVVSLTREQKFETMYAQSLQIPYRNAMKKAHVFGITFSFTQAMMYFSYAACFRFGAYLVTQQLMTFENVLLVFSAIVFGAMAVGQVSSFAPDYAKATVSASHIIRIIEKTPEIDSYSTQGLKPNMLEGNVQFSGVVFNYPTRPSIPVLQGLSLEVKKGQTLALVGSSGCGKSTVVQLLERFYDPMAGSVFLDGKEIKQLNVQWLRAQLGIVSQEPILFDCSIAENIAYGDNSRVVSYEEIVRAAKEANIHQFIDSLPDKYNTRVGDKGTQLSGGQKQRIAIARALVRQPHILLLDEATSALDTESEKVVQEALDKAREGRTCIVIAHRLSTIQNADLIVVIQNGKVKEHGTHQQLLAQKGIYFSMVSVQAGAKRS
Protocol: as §1

[4] = molecular target: gene-optimized P-glycoprotein (mouse opti-MDR3 gene product) with C-terminal His6-tag (mouse) (UniProt P21447); test: cell-based or functional assay
[5] = molecular target: wild-type P-glycoprotein (mouse MDR3 gene product) with C-terminal His6-tag (mouse) (UniProt P21447); test: cell-based or functional assay

T1 sequence (P21447 whole entry N83Q/N87Q/N90Q): as above

Opti-Pgp: P-glycoprotein (mouse MDR3) expressed from codon-optimized opti-MDR3 gene, primary sequence identical to wild-type, C-terminal His6 tag
verapamil-stimulated ATPase activity (Opti-Pgp; 0.13% lipid): 40%
verapamil-stimulated ATPase activity (Opti-Pgp; 0.52% lipid): 80%
ATP hydrolysis rate enhancement over wild-type Pgp (Opti-Pgp; Opti-Pgp versus WT-Pgp): 1.2 fold
verapamil-stimulated ATPase activity (Opti-Pgp; absence of lipids): 11%
Maximal ATPase activity (Opti-Pgp; purified Opti-Pgp, 150 μM verapamil, 1% E. coli lipids, 37° C., n > 30): 2.1 ± 0.28 µmol/min/mg
Maximum turnover number (Opti-Pgp; purified Opti-Pgp, as printed in summary): 2.1 ± 0.28 µmol/min/mg
Tm (intermediate) ([1]; 0.13% lipid): 48 °C
Unfolding temperature T1 ([1]; 1% lipid): 49.3 ± 1.0 °C
Unfolding temperature T2 ([1]; 1% lipid): 58.7 ± 0.5 °C
ΔHcal ([1]; 1% lipid): 567 ± 33 kcal/mol
Unfolding temperature T1 ([1]; no added lipids, 0.1% DDM): 42.7 ± 1.7 °C
ΔHcal ([1]; no added lipids, 0.1% DDM): 264 ± 67 kcal/mol
Growth resistance compared with WT-Pgp transformants ([2]; FK506 25 μg/ml): no difference
Growth resistance compared with WT-Pgp transformants ([2]; FK506 50 or 75 μg/ml): grew significantly faster
Growth resistance compared with WT-Pgp transformants ([2]; doxorubicin 45 μM): grew significantly faster
Growth resistance compared with WT-Pgp transformants ([2]; doxorubicin 15 and 30 μM): no significant difference
Time after inoculation to enter log-phase growth ([2]; in the presence of FK506): approximately 22 hours
Time to reach stationary phase ([2]; in the presence of FK506): approximately 28 hours
Growth compared with WT-Pgp transformants ([2]; valinomycin 80 μg/ml, data not shown): as good as or better than
Mating frequency relative to WT-Pgp controls [3]: about 1.5 fold

WT-Pgp: wild-type mouse MDR3 P-glycoprotein expressed from the native gene, comparison protein
Maximal ATPase activity (WT-Pgp): 1.8 ± 0.24 µmol/min/mg
Unfolding temperature T1 ([1]; 1% lipid): 50.4 ± 0.9 °C
Unfolding temperature T2 ([1]; 1% lipid): 57.8 ± 0.1 °C
ΔHcal ([1]; 1% lipid): 518 ± 4.2 kcal/mol
Unfolding temperature T1 ([1]; no added lipids, 0.1% DDM): 43.0 ± 1.6 °C
ΔHcal ([1]; no added lipids, 0.1% DDM): 264 ± 87 kcal/mol

cyclosporine A (peptide)
Half-maximal inhibition by cyclosporine A (µM) of verapamil-stimulated ATPase activity [4]: 1.1 µM
Half-maximal inhibition by cyclosporine A (µM) of verapamil-stimulated ATPase activity [5]: 0.98 µM
